Laboratory results as given in PMC10470402 (iScience, 2023).

T1: S. pombe Gemin2/HT-SMNp complex (S. pombe, UniProt P0CU08 1-235; Q09808 1-35)
T1 sequence 1: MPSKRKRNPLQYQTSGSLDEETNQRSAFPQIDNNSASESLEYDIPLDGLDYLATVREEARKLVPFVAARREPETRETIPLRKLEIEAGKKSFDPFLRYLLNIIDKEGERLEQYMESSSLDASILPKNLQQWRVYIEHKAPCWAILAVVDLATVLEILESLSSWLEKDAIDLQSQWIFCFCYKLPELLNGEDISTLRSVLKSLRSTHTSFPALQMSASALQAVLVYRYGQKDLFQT
T1 sequence 2: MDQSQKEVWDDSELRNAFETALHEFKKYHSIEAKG

T2: S. pombe Gemin6/Gemin7/Gemin8 complex, HT-tag removed (S. pombe, UniProt G2TRK8 1-93; G2TRR1 1-91; Q9USY8 1-166)
T2 sequence 1: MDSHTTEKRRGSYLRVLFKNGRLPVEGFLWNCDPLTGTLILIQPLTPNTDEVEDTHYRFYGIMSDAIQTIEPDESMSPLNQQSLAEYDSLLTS
T2 sequence 2: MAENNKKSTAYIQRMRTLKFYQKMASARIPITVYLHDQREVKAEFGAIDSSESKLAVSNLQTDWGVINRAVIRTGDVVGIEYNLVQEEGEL
T2 sequence 3: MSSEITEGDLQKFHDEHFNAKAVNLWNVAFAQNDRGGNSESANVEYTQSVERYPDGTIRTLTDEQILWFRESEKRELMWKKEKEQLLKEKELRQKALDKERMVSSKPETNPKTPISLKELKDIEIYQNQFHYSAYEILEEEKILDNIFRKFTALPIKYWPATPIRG

B1: S. pombe SmD3 (1-83)/SmB (1-93) subcomplex, HT-tag removed (complex)
chain 1: MSLCIKLLHETQGHIVTMELENGSTYRGKLIEAEDNMNCQMRDISVTARDGRVSHLDQVYIRGSHIRFLIVPDMLRNAPMFKV
chain 2: MGTTKMVSLLNHSLNVTTKDGRTFVGQLLAFDGFMNLVLSDCQEYRHIKKQNVPSNSVYEEKRMLGLVILRGEFIVSLSVQGPPPMDPSMRGS
B2: S. pombe HT-ICln (residues 1-160) (domain or fragment)
chain: MITKIDSLPKDLIRKVENGEKLLPNQEIVYFEEKTVPYKIRSDEESFPLGKLITLLVTSQSFILFDEEQNSGWKIPYETITLHAKQSKDKPYVYVQLEGEAIRPLLDHILKFERSSGTLHEAPSTEDENEFTDDFLELTLYVTDVDSCYQALCTCQSLHP
B3: S. pombe SmD1/SmD2 subcomplex, HT-tag removed (complex)
chain 1: not shown
chain 2: MADLVDKPRSELSEIELARLEEYEFSAGPLSVLQQAVKNHDQVLINCRNNKKLLARVKAFDRHSNMVLENVKEMWTEKKRTASGKKGKAINKDRFISKMFLRGDGVVLVVRIPSA

What was measured:
[1] = target: B2; test: pull-down
[2] = target: S. pombe SmD1/HT-SmD2 subcomplex (S. pombe, UniProt O42661 1-117; O14036 1-115); test: SEC + other: ion-exchange chromatography
S. pombe SmD1/HT-SmD2 subcomplex, sequence (O42661 whole entry, one chain of several): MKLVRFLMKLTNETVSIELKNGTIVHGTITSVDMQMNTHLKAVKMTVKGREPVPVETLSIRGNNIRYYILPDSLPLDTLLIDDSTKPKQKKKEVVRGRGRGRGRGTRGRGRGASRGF

[3] = target: B1; test: SEC
[4] = target: B3; test: SEC
[5] = target: B2; test: pull-down; remark: listed apart in the source
[6] = target: T1, S. pombe Gemin2/HT-SMNp complex; test: pull-down
[7] = target: T1, S. pombe Gemin2/HT-SMNp complex; test: pull-down; remark: listed apart in the source
[8] = target: T2, S. pombe Gemin6/Gemin7/Gemin8 complex, …; test: SEC
SEC = target: the molecule itself; test: SEC

Binder	percent bound [1] [%]	percent bound (D1/D2 and F/E/G added together) [6] [%]	percent bound [7] [%]	also measured
B1	88.9	–	–	–
B2	–	–	–	binding result [2]: binds; binding result [3]: binds; binding result [4]: binds
B3	100	59	19.8	percent bound (D1/D2 and F/E/G added together) [5]: 95%
S. pombe SMN, full length, HT-tag removed (natural protein) MDQSQKEVWDDSELRNAFETALHEFKKYHSIEAKGGVSDPDSRLDGEKLISAARTEESISKLEEGEQMINQQTETTLEGDTHIQQFADNKGLSDEKPETRAAETHQEFMEVPPPIRGLTYDETYKKLIMSWYYAGYYTGLAEGLAKSEQRKD	–	–	–	binding result [8]: binds
S. pombe SmF/SmE/SmG subcomplex, HT-tag removed (complex) chain 1: not shown chain 2: MSGRVQKVMIPPINFIFKLLQQHTPVSIWLFEQTDIRLQGQIRGFDEFMNIVLDDAVQVDAKNNKRELGRILLKGDNITLIQAI chain 3: MSKAGAPDLKKYLDRQVFVQLNGSRKVYGVLRGYDIFLNIVLEDSIEEKVDGEKVKIGSVAIRGNSVIMIETLDKMT	–	53.5	14.1	stoichiometry N (SEC): 6
